# In patent US20020053092:
# System: MeCP2 (Homo sapiens)
# Experiment: cell_activity
# Conditions: 5mC at CpG (SssI); S2 cells with Sp1; methylated promoter alone repressed 3-fold; binding inferred from repression
substance,measurement,value
"cyclin A1 promoter, SssI methylated",activity (fold repression),12
